Biological target: T1, NL1 (N-terminal endonuclease domain of L protein) (Lymphocytic choriomeningitis virus …, UniProt P14240 1-196)
T1 sequence: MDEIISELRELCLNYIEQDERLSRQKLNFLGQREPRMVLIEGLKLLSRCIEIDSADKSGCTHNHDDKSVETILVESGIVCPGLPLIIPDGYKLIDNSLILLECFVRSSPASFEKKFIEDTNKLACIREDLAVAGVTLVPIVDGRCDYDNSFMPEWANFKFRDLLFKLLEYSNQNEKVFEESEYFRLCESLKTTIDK
Assay: EMSA
Settings: protein: recombinant; tags: N-terminal His6; label: 5'-32P; unpaired

Does AUUUUGUUUUUAAUAUUUC (ssRNA) [19-mer unstructured RNA] bind?
Result: binds

Source: article PMC2940758, “The N-Terminal Domain of the Arenavirus L Protein Is an RNA Endonuclease Essential in mRNA Transcription”
